{"source": "patent US9724388B2", "about": "“FGF-18 compound dosing regimen” (MERCK PATENT GMBH, priority 2014, dated 2017)", "molecules": {"B1": {"name": "trFGF-18: recombinant truncated form of human FGF-18 (170 amino acids, SEQ ID NO: 2), produced in E. coli (protein)", "chain": "MEENVDFRIHVENQTRARDDVSRKQLRLYQLYSRTSGKHIQVLGRRISARGEDGDKYAQLLVETDTFGSQVRIKGKETEFYLCMNRKGKLVGKPDGTSKECVFIEKVLENNYTALMSAKYSGWYVGFTKKGRPRKGPKTRENQQDVHFMKRYPKGQPELQKPFKYTTVTK", "modifications": "Recombinant truncated FGF-18(trFGF-18)"}}, "key": {"[1]": {"system": "medial meniscal tear in the right knee joint", "assay_type": "in vivo, rat", "settings": "for overall morphology: three injections", "description": "After the sacrifice, the right knee was removed and decalcified in 5% formic acid for 4-6 d before cutting in half in the frontal plane and embedding in paraffin wax. Three sections were cut in 200 μm steps, stained with toluidine blue, and analyzed using ImagePro PIus™ software (Media Cybernetics). In scoring the three sections of the joint, the worst-case scenario for the two halves on each slide was determined for the cartilage lesion as the cartilage degeneration width (μm). This reflects the areas of tibial cartilage lesion in which both chondrocyte and proteoglycan loss extend ≧50% of the cartilage thickness. The measurement was taken over the area of greatest lesion severity in each of the three zones across the tibial surface.\nA treatment group Mean±SE for each score and measurement was determined.\nData was analyzed using a one-way analysis of variance (1-way ANOVA) or Kruskal-Wallis test (non-parametric), along with an appropriate multiple comparison post-test. Right knee caliper measurements were compared to left using a Student's t-test. Unless indicated, Bolder BioPATH, Inc. performs statistical analysis on raw (untransformed) data only. […] Significance for all tests was set at p≦0.05. Comparisons were made between each group and the vehicle control group, as well as between pairs.\nMale Lewis rats underwent surgery (under anesthesia with isoflurane) to induce a medial meniscal tear in the right knee joint. Animals were dosed IA with vehicle or FGF-18 on one of two different regimens (see table below), then terminated on day 105. Knees had caliper measurements taken at baseline and days 21, 42, 56, 84, and 105. Serum was evaluated for α2macroglobulin levels at baseline and on days 21, and 105, as well as one week after the final dose (day 42 or 84). Right knees were collected for histopathology evaluation."}, "[2]": {"system": "full-thickness defect in the articular cartilage of the trochlear groove", "assay_type": "in vivo, rabbit", "settings": "for ICRS gross cartilage score: mean +/- SE", "description": "60 adult male, naïve, New Zealand White rabbits were used for this study. Animals were approximately 3-4 months of age. Rabbits underwent for creation of the cartilage defect in the right knee. A 2 mm by 6 mm full-thickness defect was made in the articular cartilage of the trochlear groove. The microfracture was created using 18 gauge needles; two 3 mm deep microfractures were made through the subchondral bone at the base of the defect, one proximally and one distally. Each microfracture hole was approximately 1.5 mm in diameter and the holes separated by 2 mm. The experiment consisted of the following six treatment groups, with 10 animals in each group for a total of 60 rabbits (Table 2). Rabbits in Groups 3, 4, 5 and 6 were treated with intra-articular rhFGF-18 in either one cycle of three weekly injections of 100 μg of rhFGF-18 (Group 3 and 5) or one cycle of three monthly injections 100 μg of rhFGF-18 (Group 4 and 6). All animals were euthanized and necropsied 6 months after surgery. [table]"}, "[3]": {"settings": "in vivo; cited from earlier work"}, "[4]": {"settings": "Group 4: no microfracture, 100 μg monthly x3"}, "[5]": {"settings": "Group 6: microfracture, 100 μg monthly x3"}, "[6]": {"settings": "microfracture, monthly for three months, non-significant"}, "[7]": {"settings": "microfracture, monthly for three months, significant"}, "[8]": {"settings": "microfracture, weekly for three weeks, significant"}, "[9]": {"settings": "no microfracture, monthly for three months, non-significant"}, "[10]": {"settings": "no microfracture, monthly for three months, significant"}}, "note": "Like-named read-outs stand apart in the source and are kept apart here."}
{"molecule": "B1", "values": [{"measurement": "extent of injury over the tibial surface (histopathology), particularly collagen damage", "setting": "[1]; 10 μg IA, all regimens", "value": "generally increased"}, {"measurement": "severity of injury over the tibial surface (histopathology)", "setting": "[1]; 10 μg IA, all regimens", "value": "reducing its severity"}, {"measurement": "structural benefit", "setting": "[1]; bi-weekly injection scheme, 10 μg IA", "value": "provides interesting structural benefits"}, {"measurement": "structural benefit (joint scores, tibial cartilage degeneration width; FIGS. 3, 4, 5)", "setting": "[1]; monthly injection scheme, 10 μg IA", "value": "highest"}, {"measurement": "side effects of treatment (histopathology)", "setting": "[1]; rat, in vivo", "value": "cartilage hypertrophy, synovitis, and synovial fibrosis"}, {"measurement": "swelling in the treated knee", "setting": "[1]; rat, in vivo", "value": "significantly increased"}, {"measurement": "overall morphology", "setting": "[1]; once every 2 weeks (days 21, 35, 49)", "value": "good overall morphology"}, {"measurement": "overall morphology", "setting": "[1]; once monthly (days 21, 49, 77)", "value": "best overall morphology"}, {"measurement": "ICRS cartilage score", "setting": "[2]; [4]", "value": "2.1+/−0.3"}, {"measurement": "animals with intercondylar groove filled with cartilage (nearly normal to slightly roughened or granular)", "setting": "[2]; [4]", "value": "6/9"}, {"measurement": "ICRS gross cartilage score", "setting": "[2]; Group 5: microfracture, 100 μg weekly x3", "value": "1.9+/−0.3"}, {"measurement": "animals with groove 50% filled up to nearly completely filled with granular to coarsely granular cartilage", "setting": "[2]; [5]", "value": "7/10"}, {"measurement": "animals with intercondylar groove filled with cartilage", "setting": "[2]; [5]", "value": "3/10"}, {"measurement": "ICRS gross cartilage score", "setting": "[2]; [5]", "value": "2.4+/−0.2"}, {"measurement": "decrease in total width of the groove lesion", "setting": "[2]; [6]", "value": 19, "unit": "%"}, {"measurement": "decrease in width of the lesion with no viable cartilage", "setting": "[2]; [6]", "value": 69, "unit": "%"}, {"measurement": "increase in central MFC thickness", "setting": "[2]; [7]", "value": 106, "unit": "%"}, {"measurement": "increase in summed scores", "setting": "[2]; [7]", "value": 76, "unit": "%"}, {"measurement": "increases (toward normal) in all scored parameters and defect fill percent", "setting": "[2]; [7]", "value": "61-97%"}, {"measurement": "increase in total width of the groove lesion", "setting": "[2]; microfracture, weekly for three weeks", "value": 5, "unit": "%"}, {"measurement": "decrease in width of the lesion with no viable cartilage", "setting": "[2]; microfracture, weekly for three weeks, non-significant", "value": 59, "unit": "%"}, {"measurement": "increase in central MFC thickness", "setting": "[2]; [8]", "value": 112, "unit": "%"}, {"measurement": "increase in summed scores", "setting": "[2]; [8]", "value": 53, "unit": "%"}, {"measurement": "increases (toward normal) in all scored parameters and defect fill percent", "setting": "[2]; [8]", "value": "44-69%"}, {"measurement": "degeneration in sections", "setting": "[2]; no microfracture, monthly for three months, all sections, generally focal", "value": "minimal to severe"}, {"measurement": "increase in other scores", "setting": "[2]; [9]", "value": "20-23%"}, {"measurement": "increase in total width of the groove lesion", "setting": "[2]; [9]", "value": 36, "unit": "%"}, {"measurement": "decrease in width of the lesion with no viable cartilage", "setting": "[2]; [10]", "value": 94, "unit": "%"}, {"measurement": "increase in central MFC thickness", "setting": "[2]; [10]", "value": 120, "unit": "%"}, {"measurement": "increase in defect fill percentage", "setting": "[2]; [10]", "value": 48, "unit": "%"}, {"measurement": "increase in the defect fill score", "setting": "[2]; [10]", "value": 49, "unit": "%"}, {"measurement": "sections with cartilage hypertrophy", "setting": "[2]; rabbit, in vivo", "value": "All sections"}, {"measurement": "half-life in the joint", "setting": "[3]", "value": "less than 24 hours"}]}
